{"source": "paper PMC12130304", "target": "C-terminal, Twin-Strep-HA-tagged AVRA13-1 (Blumeria hordei)", "test": "SEC + other: negative-stain TEM"}
{"substance": "N-terminal, GST-tagged MLA13^K98E/K100E (receptor)", "values": [{"measurement": "stoichiometry N", "result": 1}]}
